Values of other authors, collected in publication PMC9252436.

Target: CD47 (Homo sapiens) (UniProt Q08722)
Sequence of UniProt Q08722 (Q08722 19-323): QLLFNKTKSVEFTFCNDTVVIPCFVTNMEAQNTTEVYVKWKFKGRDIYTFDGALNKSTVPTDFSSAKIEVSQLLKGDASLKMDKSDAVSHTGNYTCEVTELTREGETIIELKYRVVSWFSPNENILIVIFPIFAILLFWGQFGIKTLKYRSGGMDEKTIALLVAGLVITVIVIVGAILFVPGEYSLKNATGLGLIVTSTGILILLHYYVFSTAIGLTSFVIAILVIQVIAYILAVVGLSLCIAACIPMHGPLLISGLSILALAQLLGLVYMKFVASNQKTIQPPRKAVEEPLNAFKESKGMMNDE

- Kd: 16 nM
Substance: SIRPα (from UniProt P78324)
